Measured values from US7960513B2, “Antibody against a human ADAM protease” (Monash University, priority 2004, dated 2011).

T1: EphA3/ephrin-A5 complex on cells (cell-surface EphA3 with pre-clustered ephrin-A5-Fc), P29320
T1 chain 1: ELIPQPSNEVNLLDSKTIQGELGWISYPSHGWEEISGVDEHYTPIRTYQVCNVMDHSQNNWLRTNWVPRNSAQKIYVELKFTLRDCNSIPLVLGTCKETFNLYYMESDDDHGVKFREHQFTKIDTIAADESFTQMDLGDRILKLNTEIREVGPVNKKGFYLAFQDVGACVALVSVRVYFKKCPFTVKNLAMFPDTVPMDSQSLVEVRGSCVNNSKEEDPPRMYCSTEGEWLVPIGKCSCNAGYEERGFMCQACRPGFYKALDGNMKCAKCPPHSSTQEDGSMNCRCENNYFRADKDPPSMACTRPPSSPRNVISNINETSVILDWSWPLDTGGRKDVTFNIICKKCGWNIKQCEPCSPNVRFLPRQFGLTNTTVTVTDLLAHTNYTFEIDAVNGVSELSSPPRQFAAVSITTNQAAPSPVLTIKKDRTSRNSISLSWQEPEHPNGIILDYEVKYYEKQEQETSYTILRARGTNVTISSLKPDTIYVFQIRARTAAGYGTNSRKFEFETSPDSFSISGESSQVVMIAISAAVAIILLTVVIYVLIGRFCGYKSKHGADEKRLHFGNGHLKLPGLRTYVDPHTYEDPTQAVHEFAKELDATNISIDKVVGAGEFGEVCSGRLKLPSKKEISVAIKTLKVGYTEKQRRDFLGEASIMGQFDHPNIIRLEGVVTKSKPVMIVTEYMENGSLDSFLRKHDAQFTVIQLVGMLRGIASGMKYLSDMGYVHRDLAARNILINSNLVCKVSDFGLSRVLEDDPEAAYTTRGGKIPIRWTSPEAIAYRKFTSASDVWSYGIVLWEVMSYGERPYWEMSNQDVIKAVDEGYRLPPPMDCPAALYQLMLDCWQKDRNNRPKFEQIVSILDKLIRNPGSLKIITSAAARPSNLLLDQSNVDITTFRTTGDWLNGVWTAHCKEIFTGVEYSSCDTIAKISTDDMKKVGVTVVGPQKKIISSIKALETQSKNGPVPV
T1 chain 2: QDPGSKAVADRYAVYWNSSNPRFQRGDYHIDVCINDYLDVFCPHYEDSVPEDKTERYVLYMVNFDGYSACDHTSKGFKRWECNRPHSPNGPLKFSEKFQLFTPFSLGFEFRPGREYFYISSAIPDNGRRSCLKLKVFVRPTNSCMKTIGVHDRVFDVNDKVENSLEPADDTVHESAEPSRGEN

T2: EphA3/ephrin-A5 complex (Homo sapiens, UniProt P29320+P52803)
T2 construct: incubated with Fc-tagged ectodomains of Eph-A3, EphB2, EphB4 and ephrin-A2, ephrin-A5, ephrin-B2 (R&D systems)
T2 sequence (P29320 21-541 limits assumed): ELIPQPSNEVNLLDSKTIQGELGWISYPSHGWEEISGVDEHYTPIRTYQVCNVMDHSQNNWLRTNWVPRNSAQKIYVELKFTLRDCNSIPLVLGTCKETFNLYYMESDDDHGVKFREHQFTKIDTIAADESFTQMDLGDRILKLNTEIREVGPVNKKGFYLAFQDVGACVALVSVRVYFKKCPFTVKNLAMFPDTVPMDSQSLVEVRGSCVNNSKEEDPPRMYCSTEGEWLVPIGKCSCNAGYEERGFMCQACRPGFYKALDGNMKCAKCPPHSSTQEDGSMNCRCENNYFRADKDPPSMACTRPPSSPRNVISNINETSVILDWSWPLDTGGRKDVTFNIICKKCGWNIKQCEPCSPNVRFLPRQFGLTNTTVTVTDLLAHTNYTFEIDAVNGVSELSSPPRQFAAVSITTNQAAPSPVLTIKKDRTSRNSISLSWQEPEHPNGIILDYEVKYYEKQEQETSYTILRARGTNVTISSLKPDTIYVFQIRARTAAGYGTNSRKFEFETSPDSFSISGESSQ
T2 sequence (P52803 21-203 limits assumed): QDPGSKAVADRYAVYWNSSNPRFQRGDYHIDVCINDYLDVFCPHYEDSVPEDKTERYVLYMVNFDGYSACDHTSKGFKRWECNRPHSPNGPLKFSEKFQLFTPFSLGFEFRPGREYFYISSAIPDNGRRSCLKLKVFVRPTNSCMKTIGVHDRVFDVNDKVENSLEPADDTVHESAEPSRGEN


Legend:
EphA3/HEK293 cells = assay: Ephrin-A5 cleavage and internalisation in EphA3-expressing cells treated with clustered ephrin-A5-Fc / ephrinA5-Fc beads; format: cell-based, human
Method: FIG. 1. EphA3-ADAM10 association, ephrin-A5 cleavage and ephrin internalisation. • A. Association of ADAM10 with EphA3 in LiBr melanoma cells and parental or stably transfected EphA3/HEK293 cells. The cells were treated with clustered ephrin-Fc (A5 or A2) or were left untreated (−) prior to lysis. Anti-EphA3 immunoprecipitates from lysates were analysed by Western blot for endogenous ADAM10 (“p” and “m” indicate the pro (unprocessed) and mature (processed) forms of ADAM10). Aliquots from immunoprecipitates were blotted for EphA3 levels to indicate loading (lower panel). […] EphA3/HEK293 or ephrin-A5/HEK293 cells were transfected to express HA-tagged ADAM10ΔPM. Western Blots of anti-HA immuno-precipitates were analysed with antibodies against ephrin-A5 and EphA3, parallel control samples with anti-ADAM10 antibodies. Lysates of ephrin-A5/HEK 293 cells were also extracted with Protein-A Sepharose-bound EphA3 Fc and analysed with anti-ephrin-A5 antibodies. • C. […] Pooled cell lysates and supernatants were pre-cleared with excess Protein-A Sepharose, cleaved ephrin-A5 was extracted using EphA3-Fc coupled to Protein-A Sepharose and analysed by anti-ephrin-A5 immuno-blot. Recombinant, monomeric, single-chain ephrin-A5 (Himanen et al., 2004, Nat Neurosci. 7 501-9; ephrin std) was analysed in parallel. • D. Ephrin-A5 cleavage and internalisation are inhibited by dominant-negative ADAM10. […]

[1] = biological target: T1, EphA3/ephrin-A5 complex on cells …
EphA3/ephrin-A5 complex = biological target: T2, EphA3/ephrin-A5 complex; assay: In vitro binding (Protein-A pull-down) assay; details: EphA3-Fc plus untagged ephrin-A5
Method: Pull-down experiments were done as follows: ADAM10D+C, ADAM17D+C w.t. or the alanine mutants (˜15 μg) were incubated with Fc-tagged ectodomains of Eph-A3, EphB2, EphB4 and ephrin-A2, ephrin-A5, ephrin-B2 (R&D systems) at 4° C. for 30 min in 500 μL of binding buffer containing 10 mM HEPES (pH 7.4), 150 mM NaCl and 0.05% of Triton X-100. To test binding to the preformed EphA3/ephrin-A5 complex, 5 μg of the untagged ephrin-A5 was incubated with Fc tagged EphA3 for 30 min at 4° C. followed by the addition of ADAM10. The proteins were incubated for an additional 30 min., when Protein-A-Sepharose (Amersham) beads were added to the reaction mixture and shaken at 4° C. for 2h. The beads were then harvested by centrifugation, washed once with 500 μl of binding buffer and the bound proteins were separated on a 10-20% gradient polyacrylamide gel. The binding of the individual ADAM domains was carried out likewise using 15 μg of the disintegrin and 8 μg of the cysteine-rich domain.

binding to EphA3/ephrin-A5 complex (EphA3/ephrin-A5 complex) | Molecule | ephrin-A5 cleavage (cleaved ephrin-A5 recovered with EphA3-Fc, anti-ephrin-A5 Western blot) [1] | further results
 | CC(C)C[C@H](CC(=O)NO)C(=O)N[C@@H](Cc1ccc2ccccc2c1)C(=O)N[C@@H](C)C(=O)NCCN [TAPI] |  | ephrin-A5 cleavage and internalisation (EphA3/HEK293 cells; pretreated with 50 μM TAPI1 (1h)): inhibited
 | c1cnc2c(c1)ccc1cccnc12 [1,10-O-Phenanthroline] |  | ephrin-A5 cleavage and internalisation (EphA3/HEK293 cells; pretreated with 1 mM OPN (4h)): inhibited
 | full-length ADAM10[EEE-A] (protein) TTVAEKNTCQLYIQTDHLFFKYYGTREAVIAQISSHVKAIDTIYQTTDFSGIRNISFMVKRIRINTTADEKDPTNPFRFPNIGVEKFLELNSEQNHDDYCLAYVFTDRDFDDGVLGLAWVGAPSGSSGGICEKSKLYSDGKKKSLNTGIITVQNYGSHVPPKVSHITFAHEVGHNFGSPHDSGTECTPGESKNLGQKENGNYIMYARATSGDKLNNNKFSLCSIRNISQVLEKKRNNCFVESGQPICGNGMVEQGEECDCGYSDQCKDECCYDANQPEGKKCKLKPGKQCSPSQGPCCTAHCAFKSKTEKCRDDSDCAKEGICNGITALCPASDPKPNFTDCNRHTQVCINGQCAGSICAKHGLAACTCASSDGKDDKELCHVCCMKKMEPSTCASTGSVQWNKYFLGRTITLQPGSPCNDFRGYCDVFMRCRLVDADGPLARLKKAIFSPELYENIAEWIVAYWWAVLLMGIALIMLMAGFIKICSVHTPSSNPKLPPPKPLPGTLKRRRPPQPIQQPQRQRPRESYQMGHMRR | overexpression of mutant ADAM10 with Ala or Lys substitutions of the three Glu residues or lacking the protease domain, effectively inhibited ephrin-A5 cleavage | 
 | full-length ADAM10 with lysine (3K) substitutions of Glu573, 578, 579 (protein) TTVAEKNTCQLYIQTDHLFFKYYGTREAVIAQISSHVKAIDTIYQTTDFSGIRNISFMVKRIRINTTADEKDPTNPFRFPNIGVEKFLELNSEQNHDDYCLAYVFTDRDFDDGVLGLAWVGAPSGSSGGICEKSKLYSDGKKKSLNTGIITVQNYGSHVPPKVSHITFAHEVGHNFGSPHDSGTECTPGESKNLGQKENGNYIMYARATSGDKLNNNKFSLCSIRNISQVLEKKRNNCFVESGQPICGNGMVEQGEECDCGYSDQCKDECCYDANQPEGKKCKLKPGKQCSPSQGPCCTAHCAFKSKTEKCRDDSDCAKEGICNGITALCPASDPKPNFTDCNRHTQVCINGQCAGSICKKHGLKKCTCASSDGKDDKELCHVCCMKKMEPSTCASTGSVQWNKYFLGRTITLQPGSPCNDFRGYCDVFMRCRLVDADGPLARLKKAIFSPELYENIAEWIVAYWWAVLLMGIALIMLMAGFIKICSVHTPSSNPKLPPPKPLPGTLKRRRPPQPIQQPQRQRPRESYQMGHMRR | overexpression of mutant ADAM10 with Ala or Lys substitutions of the three Glu residues or lacking the protease domain, effectively inhibited ephrin-A5 cleavage | 
does not bind | ADAM10D+C[EEE-A]: ADAM10D+C with Glu573, Glu578 and Glu579 mutated to alanines (protein) SGQPICGNGMVEQGEECDCGYSDQCKDECCYDANQPEGKKCKLKPGKQCSPSQGPCCTAHCAFKSKTEKCRDDSDCAKEGICNGITALCPASDPKPNFTDCNRHTQVCINGQCAGSICAKHGLAACTCASSDGKDDKELCHVCCMKKMEPSTCASTGSVQWNKYFLGRTITLQPGSPCNDFRGYCDVFMRCR |  | 
retains wild-type binding affinity | ADAM10D+C[RDD-A]: ADAM10D+C with Ala substitutions of Arg525, Asp526, Asp527 (protein) SGQPICGNGMVEQGEECDCGYSDQCKDECCYDANQPEGKKCKLKPGKQCSPSQGPCCTAHCAFKSKTEKCAAASDCAKEGICNGITALCPASDPKPNFTDCNRHTQVCINGQCAGSICEKHGLEECTCASSDGKDDKELCHVCCMKKMEPSTCASTGSVQWNKYFLGRTITLQPGSPCNDFRGYCDVFMRCR |  | 
